Test results: PMC10616557 (iScience, 2023)

Target: the molecule itself
Assay: cross-linking

## MGNASFGSKEQKLLKRLRLLPALLILRAFKPHRK (peptide, UniProt O95661 1-34, looked up) [DIRAS3 N-terminal extension peptide, wild type (NTEwt)]
  stoichiometry N: 2

## MANASFGSKEQKLLKRLRLLPALLILRAFKPHRK (peptide, UniProt O95661 1-34, looked up) [DIRAS3 NTE peptide with mutation of the glycine myristoylation site (NTEG2A)]
  stoichiometry N: 2
